B1: Serine/threonine-protein kinase MRCK alpha (Homo sapiens), Q5VT25 (parent)
chain: MSGEVRLRQLEQFILDGPAQTNGQCFSVETLLDILICLYDECNNSPLRREKNILEYLEWAKPFTSKVKQMRLHREDFEILKVIGRGAFGEVAVVKLKNADKVFAMKILNKWEMLKRAETACFREERDVLVNGDNKWITTLHYAFQDDNNLYLVMDYYVGGDLLTLLSKFEDRLPEDMARFYLAEMVIAIDSVHQLHYVHRDIKPDNILMDMNGHIRLADFGSCLKLMEDGTVQSSVAVGTPDYISPEILQAMEDGKGRYGPECDWWSLGVCMYEMLYGETPFYAESLVETYGKIMNHKERFQFPAQVTDVSENAKDLIRRLICSREHRLGQNGIEDFKKHPFFSGIDWDNIRNCEAPYIPEVSSPTDTSNFDVDDDCLKNSETMPPPTHTAFSGHHLPFVGFTYTSSCVLSDRSCLRVTAGPTSLDLDVNVQRTLDNNLATEAYERRIKRLEQEKLELSRKLQESTQTVQALQYSTVDGPLTASKDLEIKNLKEEIEKLRKQVTESSHLEQQLEEANAVRQELDDAFRQIKAYEKQIKTLQQEREDLNKELVQASERLKNQSKELKDAHCQRKLAMQEFMEINERLTELHTQKQKLARHVRDKEEEVDLVMQKVESLRQELRRTERAKKELEVHTEALAAEASKDRKLREQSEHYSKQLENELEGLKQKQISYSPGVCSIEHQQEITKLKTDLEKKSIFYEEELSKREGIHANEIKNLKKELHDSEGQQLALNKEIMILKDKLEKTRRESQSEREEFESEFKQQYEREKVLLTEENKKLTSELDKLTTLYENLSIHNQQLEEEVKDLADKKESVAHWEAQITEIIQWVSDEKDARGYLQALASKMTEELEALRNSSLGTRATDMPWKMRRFAKLDMSARLELQSALDAEIRAKQAIQEELNKVKASNIITECKLKDSEKKNLELLSEIEQLIKDTEELRSEKGIEHQDSQHSFLAFLNTPTDALDQFERSPSCTPASKGRRTVDSTPLSVHTPTLRKKGCPGSTGFPPKRKTHQFFVKSFTTPTKCHQCTSLMVGLIRQGCSCEVCGFSCHITCVNKAPTTCPVPPEQTKGPLGIDPQKGIGTAYEGHVRIPKPAGVKKGWQRALAIVCDFKLFLYDIAEGKASQPSVVISQVIDMRDEEFSVSSVLASDVIHASRKDIPCIFRVTASQLSASNNKCSILMLADTENEKNKWVGVLSELHKILKKNKFRDRSVYVPKEAYDSTLPLIKTTQAAAIIDHERIALGNEEGLFVVHVTKDEIIRVGDNKKIHQIELIPNDQLVAVISGRNRHVRLFPMSALDGRETDFYKLSETKGCQTVTSGKVRHGALTCLCVAMKRQVLCYELFQSKTRHRKFKEIQVPYNVQWMAIFSEQLCVGFQSGFLRYPLNGEGNPYSMLHSNDHTLSFIAHQPMDAICAVEISSKEYLLCFNSIGIYTDCQGRRSRQQELMWPANPSSCCYNAPYLSVYSENAVDIFDVNSMEWIQTLPLKKVRPLNNEGSLNLLGLETIRLIYFKNKMAEGDELVVPETSDNSRKQMVRNINNKRRYSFRVPEEERMQQRREMLRDPEMRNKLISNPTNFNHIAHMGPGDGIQILKDLPMNPRPQESRTVFSGSVSIPSITKSRPEPGRSMSASSGLSARSSAQNGSALKREFSGGSYSAKRQPMPSPSEGSLSSGGMDQGSDAPARDFDGEDSDSPRHSTASNSSNLSSPPSPASPRKTKSLSLESTDRGSWDP
partner: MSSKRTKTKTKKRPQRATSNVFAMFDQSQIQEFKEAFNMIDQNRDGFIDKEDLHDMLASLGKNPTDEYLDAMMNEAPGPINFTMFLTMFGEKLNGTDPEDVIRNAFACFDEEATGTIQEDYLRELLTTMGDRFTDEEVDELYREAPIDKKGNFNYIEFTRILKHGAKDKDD

Variants of: B1
Details: with ml12a_human MYL12A

| effect of a mutation on the interaction | Variant |
| --- | --- |
| decreasing interaction | T240A |
| decreasing interaction | T403A |
| decreasing interaction | K106A |
| decreasing interaction | S234A |

Source: IntAct's records for PubMed 11283256
